From the RNAGym collection of RNA variant scans (doi:10.7554/elife.80360)

B1: HDV Ribozyme (parent)
chain: GGCCGGCAUGGUCCCAGCCUCCUCGCUGGCGCCGGCUGGGCAACAUUCCGAGGGGACCGUCCCCUCGGUAAUGGCGAAUGGGACCCA

Variants of: B1
Assay: self-cleavage, relative activity (ratio to wild type); higher = more cleavage; co-transcriptional
GGCCGGCAUGGUCCCAGCCUCCUAGCUGGCGCCGGCUGGGCAAUAUUCCGAGGGGACCGUCCCCUCGGUAAUGGCGAAUGGGACCCA showed a self-cleavage of 0.0831. GGCCGGCAUGGUCCCAGCCUCCUAGCUGGCGCCGGCUGGGCAAGAUUCCGAGGGGACCGUCCCCUCGGUAAUGGCGAAUGGGACCCA showed a self-cleavage of 0.256. Variant GGCCGGCAUGGUCCCAGCCUCCGCGCUGGCGCCGGCUGGGCAACAUUCCGAGGGGACCGUCCCCUCGGUAAGGGCGAAUGGGACCCA has a self-cleavage of 0.214. Work on GGCCGGCAUGGUCCCAGCCUCCGCGCUGGCGCCGGCUGGGCAACAUUCCGAGGGGACCGUCCCCUCGGUAAAGGCGAAUGGGACCCA yielded a self-cleavage of 0.341. With GGCCGGCAUGGUCCCAGCCUCCUAGCUGGCGCCGGCUGGGCGACAUUCCGAGGGGACCGUCCCCUCGGUAAUGGCGAAUGGGACCCA the self-cleavage was 0.166. In the case of GGCCGGCAUGGUCCCAGCCUCCUAGCUGGCGCCGGCUGGGCUACAUUCCGAGGGGACCGUCCCCUCGGUAAUGGCGAAUGGGACCCA, the self-cleavage is reported as 0.0639. With GGCCGGCAUGGUCCCAGCCUCCGCGCUGGCGCCGGCUGGGCAACAUUCCGAGGGAACCGUCCCCUCGGUAAUGGCGAAUGGGACCCA the self-cleavage was 0.67. GGCCGGCAUGGUCCCAGCCUCCGCGCUGGCGCCGGCUGGGCAACAUUCCGAGGGUACCGUCCCCUCGGUAAUGGCGAAUGGGACCCA showed a self-cleavage of 0.502. With GGCCGGCAUGGUCCCAGCCUCCGCGCUGGCGCCGGCUGGGCAACAUUCCGAGGGGACCGUCCCCUCGAUAAUGGCGAAUGGGACCCA the self-cleavage was 0.565. With GGCCGGCAUGGUCCCAGCCUCCGCGCUGGCGCCGGCUGGGCAACAUUCCGAAGGGACCGUCCCCUCGGUAAUGGCGAAUGGGACCCA the self-cleavage was 0.554. GGCCGGCAUGGUCCCAGCCUCCGCGCUGGCGCCGGCUGGGCAACAUUCCGAGGCGACCGUCCCCUCGGUAAUGGCGAAUGGGACCCA showed a self-cleavage of 0.598. GGCCGGCAUGGUCCCAGCCUCCUAGCUGGCGCCGGCUGGGCAACAUUCCGAGGGGACCGUCCCCUCGGUCAUGGCGAAUGGGACCCA gave a self-cleavage of 0.852. With GGCCGGCAUGGUCCCAGCCUCCUAGCUGGCGCCGGCUGGGCAACAUUCCGAGGGGACCGUCCCCUCGGUUAUGGCGAAUGGGACCCA the self-cleavage was 0.612. GGCCGGCAUGGUCCCAGCCUCCUAGCUGGCGCCGGCUGGGAAACAUUCCGAGGGGACCGUCCCCUCGGUAAUGGCGAAUGGGACCCA showed a self-cleavage of 0.369. GGCCGGCAUGGUCCCAGCCUCCUAGCUGGCGCCGGCUGGGUAACAUUCCGAGGGGACCGUCCCCUCGGUAAUGGCGAAUGGGACCCA showed a self-cleavage of 0.354. Work on GGCCGGCAUGGUCCCAGCCUCCGCGCUGGCGCCGGCUGGGCAACAUUCCGAGGGGACCGUCCCCUCGGUAAUGGCGAAUGAGACCCA yielded a self-cleavage of 0.0426. With GGCCGGCAUGGUCCCAGCCUCCGCGCUGGCGCCGGCUGGGCAACAUUCCGAGGGGACCGUCCCCUCGGUAAUGGCGAAUGCGACCCA the self-cleavage was 0.166. GGCCGGCAUGGUCCCAGCCUCCGCGCUGGCGCCGGCUGGGCAACAUUCCGAGGGGACCGUCCCCUCGGUAAUGGCGAAUGUGACCCA gave a self-cleavage of 0.117. GGCCGGCAUGGUCCCAGCCUCCGCGCUGGCGCCGGCAGGGCAACAUUCCGAGGGGACCGUCCCCUCGGUAAUGGCGAAUGGGACCCA showed a self-cleavage of 0.0678. With GGCCGGCAUGGUCCCAGCCUCCUAGCUGGCGCGGGCUGGGCAACAUUCCGAGGGGACCGUCCCCUCGGUAAUGGCGAAUGGGACCCA the self-cleavage was 0.142. GGCCGGCAUGGUCCCAGCCUCCUAGCUGGCGCAGGCUGGGCAACAUUCCGAGGGGACCGUCCCCUCGGUAAUGGCGAAUGGGACCCA gave a self-cleavage of 0.0811. With GGCCGGCAUGGUCCCAGCCUCCUAGCUGGCGCUGGCUGGGCAACAUUCCGAGGGGACCGUCCCCUCGGUAAUGGCGAAUGGGACCCA the self-cleavage was 0.363. GGCCGGCAUGGUCCCAGCCUCCGCGCUGGCGCCGGCUGGGCAACACUCCGAGGGGACCGUCCCCUCGGUAAUGGCGAAUGGGACCCA showed a self-cleavage of 0.462. Work on GGCCGGCAUGGUCCCAGCCUCCGCGCUGGCGCCGGCUGGGCAACAAUCCGAGGGGACCGUCCCCUCGGUAAUGGCGAAUGGGACCCA yielded a self-cleavage of 0.712. For GGCCGGCAUGGUCCCAGCCUCCGCGCUGGCGCCGGCUGGCCAACAUUCCGAGGGGACCGUCCCCUCGGUAAUGGCGAAUGGGACCCA, the self-cleavage was 0.135. For GGCCGGCAUGGUCCCAGCCUCCGCGCUGGCGCCGGCUGGGCAACAUUCCGAGGGGACCGUCCCCUCGGUAAUGGCUAAUGGGACCCA, the self-cleavage was 1.05. Work on GGCCGGCAUGGUCCCAGCCUCCUAGCUGGCGUCGGCUGGGCAACAUUCCGAGGGGACCGUCCCCUCGGUAAUGGCGAAUGGGACCCA yielded a self-cleavage of 0.619. Variant GGCCGGCAUGGUCCCAGCCUCCUAGCUGGCGGCGGCUGGGCAACAUUCCGAGGGGACCGUCCCCUCGGUAAUGGCGAAUGGGACCCA has a self-cleavage of 0.213. Variant GGCCGGCAUGGUCCCAGCCUCCGCGCCGGCGCCGGCUGGGCAACAUUCCGAGGGGACCGUCCCCUCGGUAAUGGCGAAUGGGACCCA has a self-cleavage of 0.511. GGCCGGCAUGGUCCCAGCCUCCGCGCAGGCGCCGGCUGGGCAACAUUCCGAGGGGACCGUCCCCUCGGUAAUGGCGAAUGGGACCCA showed a self-cleavage of 0.594. Work on GGCCGGCAUGGUCCCAGCCUCCGCGCUGGCGCCGGCUGGGCAACAUUCCGAGGGGACCGUCCCCACGGUAAUGGCGAAUGGGACCCA yielded a self-cleavage of 0.886. Variant GGCCGGCAUGGUCCCAGCCUCCUAGCUGGCGCCGGCUGGGCAACAUUCCGAGGGGACCGUCCCCUCGGUAAUGGCGAAUGGGGCCCA has a self-cleavage of 0.626. Variant GGCCGGCAUGGUCCCAGCCUCCGCGCUGGCGCCGGCUGGGCAACAUUCCGAGGGGACCGUCCCCUCGGUAAUGGCGAAUGGCACCCA has a self-cleavage of 0.222. GGCCGGCAUGGUCCCAGCCUCCUAGCUGGCGCCGGCUGGGCAACGUUCCGAGGGGACCGUCCCCUCGGUAAUGGCGAAUGGGACCCA showed a self-cleavage of 0.898. GGCCGGCAUGGUCCCAGCCUCCUAGCUGGCGCCGGCUGGGCAACUUUCCGAGGGGACCGUCCCCUCGGUAAUGGCGAAUGGGACCCA gave a self-cleavage of 0.541. GGCCGGCAUGGUCCCAGCCUCCUAGCUGGCGCCGGCUGGGCAACAUUCCGAGGGGGCCGUCCCCUCGGUAAUGGCGAAUGGGACCCA gave a self-cleavage of 0.404. For GGCCGGCAUGGUCCCAGCCUCCGCGCUGGCGCCGGCUGGGCAACAUUCCAAGGGGACCGUCCCCUCGGUAAUGGCGAAUGGGACCCA, the self-cleavage was 0.614. GGCCGGCAUGGUCCCAGCCUCCGCGCUGGCGCCGGCUGGGCAACAUUCCCAGGGGACCGUCCCCUCGGUAAUGGCGAAUGGGACCCA gave a self-cleavage of 0.767. For GGCCGGCAUGGUCCCAGCCUCCGCGCUGGCGCCGGCUGGGCAACAUUCCGAGGGGACCGUCCCCUCGGAAAUGGCGAAUGGGACCCA, the self-cleavage was 0.499. GGCCGGCAUGGUCCCAGCCUCCGCGCUGGCGCCGGCUGGGCAACAUUCCGAGGGGACCGUCCCCUCGGGAAUGGCGAAUGGGACCCA showed a self-cleavage of 0.431. For GGCCGGCAUGGUCCCAGCCUCCUAGCUGGCGCCGGCUGGGCAACAUUCCGAGGGGACCGUCCCCUCGGUAAUGGCGUAUGGGACCCA, the self-cleavage was 0.185. GGCCGGCAUGGUCCCAGCCUCCUAGCUGGCGCCGGCUGGGCAACAUUCCGAGGGGACCGUCCCCUCGGUAAUGGCGGAUGGGACCCA gave a self-cleavage of 0.256. For GGCCGGCAUGGUCCCAGCCUCCUAGCUGGUGCCGGCUGGGCAACAUUCCGAGGGGACCGUCCCCUCGGUAAUGGCGAAUGGGACCCA, the self-cleavage was 0.0723. In the case of GGCCGGCAUGGUCCCAGCCUCCUAGCUGGGGCCGGCUGGGCAACAUUCCGAGGGGACCGUCCCCUCGGUAAUGGCGAAUGGGACCCA, the self-cleavage is reported as 0.089. Variant GGCCGGCAUGGUCCCAGCCUCCGCGCUGGCGCCGGCUGGGCAACAUUCCGAGAGGACCGUCCCCUCGGUAAUGGCGAAUGGGACCCA has a self-cleavage of 0.306. With GGCCGGCAUGGUCCCAGCCUCCGCGCUGGCGCCGGCUGGGCAACAUUCCGAGUGGACCGUCCCCUCGGUAAUGGCGAAUGGGACCCA the self-cleavage was 0.866. Work on GGCCGGCAUGGUCCCAGCCUCCGCGCUGGCGCCGGCUGGGCAACAUUCCGAGCGGACCGUCCCCUCGGUAAUGGCGAAUGGGACCCA yielded a self-cleavage of 0.759. With GGCCGGCAUGGUCCCAGCCUCCUAGCUGGCGCCGGAUGGGCAACAUUCCGAGGGGACCGUCCCCUCGGUAAUGGCGAAUGGGACCCA the self-cleavage was 0.175. Variant GGCCGGCAUGGUCCCAGCCUCCUAGUUGGCGCCGGCUGGGCAACAUUCCGAGGGGACCGUCCCCUCGGUAAUGGCGAAUGGGACCCA has a self-cleavage of 1.05. Work on GGCCGGCAUGGUCCCAGCCUCCUAGGUGGCGCCGGCUGGGCAACAUUCCGAGGGGACCGUCCCCUCGGUAAUGGCGAAUGGGACCCA yielded a self-cleavage of 0.858. Variant GGCCGGCAUGGUCCCAGCCUCCGCGCUGGCGCCGGCUGGGCAACAUUCCGAGGGGACCGUCCCCUCGGUAAUGGCGAAUCGGACCCA has a self-cleavage of 0.147. Work on GGCCGGCAUGGUCCCAGCCUCCUAGCUGGCGCCGGCUGGGCAGCAUUCCGAGGGGACCGUCCCCUCGGUAAUGGCGAAUGGGACCCA yielded a self-cleavage of 0.256. GGCCGGCAUGGUCCCAGCCUCCUAGCUGGCGCCGGCUGGGCAUCAUUCCGAGGGGACCGUCCCCUCGGUAAUGGCGAAUGGGACCCA showed a self-cleavage of 0.258. For GGCCGGCAUGGUCCCAGCCUCCGCGCUGGCGCCGGCUGGGCAACAUUCCGAGGGGACCAUCCCCUCGGUAAUGGCGAAUGGGACCCA, the self-cleavage was 0.708. GGCCGGCAUGGUCCCAGCCUCCGCGCUGGCGCCGGCUGGGCAACAUUCCGAGGGGACCCUCCCCUCGGUAAUGGCGAAUGGGACCCA showed a self-cleavage of 0.9. Work on GGCCGGCAUGGUCCCAGCCUCCUAGCUGGCGCCGGCUGGGCAACAUUCCGAGGGGACCGUCCCCUCGGUAAUGGCGAGUGGGACCCA yielded a self-cleavage of 0.492. Work on GGCCGGCAUGGUCCCAGCCUCCUAGCUGGCGCCGGCUGGGCAACAUUCCGUGGGGACCGUCCCCUCGGUAAUGGCGAAUGGGACCCA yielded a self-cleavage of 0.747. With GGCCGGCAUGGUCCCAGCCUCCUAGCUGGCGCCGGCUGGGCAACAUUGCGAGGGGACCGUCCCCUCGGUAAUGGCGAAUGGGACCCA the self-cleavage was 0.47. For GGCCGGCAUGGUCCCAGCCUCCUAGCUGGCGCCGGCUGGGCAACAUUCCGAGGGGACCGUCCCCUCGGUAAUGGCGAAUGGGACCCC, the self-cleavage was 0.645. For GGCCGGCAUGGUCCCAGCCUCCGCGCUGGCGCCGGCUGGGCAACAUCCCGAGGGGACCGUCCCCUCGGUAAUGGCGAAUGGGACCCA, the self-cleavage was 0.332. Work on GGCCGGCAUGGUCCCAGCCUCCGCGCUGGCGCCGGCUGGGCAACAUGCCGAGGGGACCGUCCCCUCGGUAAUGGCGAAUGGGACCCA yielded a self-cleavage of 0.731. Work on GGCCGGCAUGGUCCCAGCCUCCGCGCUGGCGCCGGCUGGGCAACAUACCGAGGGGACCGUCCCCUCGGUAAUGGCGAAUGGGACCCA yielded a self-cleavage of 0.864. GGCCGGCAUGGUCCCAGCCUCCGCGCUGGCGCCGGCUGGGCAACAUUCCGAGGGGACCGUCCCCUCAGUAAUGGCGAAUGGGACCCA gave a self-cleavage of 0.628. GGCCGGCAUGGUCCCAGCCUCCGCGCUGGCGCCGGCUGGGCAACAUUCCGAGGGGACCGGCCCCUCGGUAAUGGCGAAUGGGACCCA gave a self-cleavage of 0.665.
